± gives the uncertainty stated by the source.
Assay: self-splicing fitness, log relative to wild type (ln ratio); higher = more splicing; Tetrahymena group I intron in knt gene, E. coli kanamycin selection, DiMSum; sequences stand for … in CUCUCU…GGAGGGAAAAGUUAUCAGGCAUGCACCUGGUAGCUAGUCUUUAAACCAAUAGAUUGCAUCGGUUUAAAAGGCAAGACCGUCAAAUUGCGGGAAAGGGGUCAACAGCCGUUCAGUACCAAGUCUCAGGGGAAACUUUGAGAUGGCCUUGCAAAGGGUAUGGUAAUAAGCUGACGGACAUGGUCCUAACCACGCAGCCAAGUCCUAAGUCAACAGAUCUUCUGUUGAUAUGGAUGCAGUUCACAGACUAAAUGUCGGUCGGGGAAGAUGUAUUCUUCUCAUAAGAUAUAGUCGGACCUCUCCUUAAUGGGAGCUAGCGGAUGAAGUGAUGCAACACUGGAGCCGCUGGGAACUAAUUUGUAUGCGAAAGUAUAUUGAUUAGUUUUGGAGUACUCGUGGUCG
How it was run: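 The eight P1ex-region nucleotides of an intron in the knt kanamycin-resistance gene on pET-22b(+) were all randomised and the library put into E. coli BL21(DE3). Six replicate transformations were grown overnight at 37°C or 30°C on LB agar with or without 25 μg/mL kanamycin, together with 100 μg/mL carbenicillin, 50 μM IPTG and 0.2% rhamnose. Colonies were pooled and amplicon-sequenced on an Illumina HiSeq 2500. Fitness from DiMSum is the error-weighted combination of wild-type-normalised replicate fold changes, kanamycin over none.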

Sequence | self-splicing fitness (ln) (30 °C) | self-splicing fitness (ln) (37 °C)
GCUUAGCAAUAUUACGUCCG | -1.68 ± 0.19 | -1.43 ± 0.24
GACGAGCAAUAUUACGGGCU | -3.61 ± 0.2 | -2.21 ± 0.19
UUUCAGCAAUAUUACGUCGC | -3.67 ± 0.2 | -2.73 ± 0.24
GUGGAGCAAUAUUACGGUCA | -2.12 ± 0.17 | -1.23 ± 0.13
AAUGAGCAAUAUUACGGGUG | -3.73 ± 0.33 | -2.72 ± 0.22
GCAAAGCAAUAUUACGACAA | -1.43 ± 0.1 | -0.838 ± 0.087
GCAGAGCAAUAUUACGAUAC | -2.79 ± 0.28 | -0.699 ± 0.22
GAGAAGCAAUAUUACGGCUC | – | -2.07 ± 0.21
AUGAAGCAAUAUUACGGCCU | 0.063 ± 0.094 | 0.456 ± 0.13
UCAAAGCAAUAUUACGAACU | -3.14 ± 0.19 | -1.97 ± 0.23
UUGGAGCAAUAUUACGCAAA | -2.95 ± 0.44 | -2.54 ± 0.41
AGCAAGCAAUAUUACGGAUG | -2.27 ± 0.14 | -2.17 ± 0.17
GCAAAGCAAUAUUACGGUGC | -2.45 ± 0.12 | -3.66 ± 0.27
CACUAGCAAUAUUACGCGAC | -3.04 ± 0.18 | -3.16 ± 0.3
AAUCAGCAAUAUUACGGUUU | -1.35 ± 0.056 | -0.0658 ± 0.064
UGUUAGCAAUAUUACGUAAU | -2.96 ± 0.3 | -1.02 ± 0.21
CGCUAGCAAUAUUACGCCCU | 0.0689 ± 0.15 | -0.957 ± 0.24
UUUAAGCAAUAUUACGGGUA | -2.25 ± 0.13 | -0.422 ± 0.11
GACAAGCAAUAUUACGCUGG | -2.84 ± 0.14 | -1.97 ± 0.17
UAACAGCAAUAUUACGUCCA | -0.357 ± 0.091 | -0.0151 ± 0.12
CCCAAGCAAUAUUACGUGGU | -3.27 ± 0.087 | -1.86 ± 0.084
GCACAGCAAUAUUACGCACC | -0.769 ± 0.13 | 0.129 ± 0.15
GCGAAGCAAUAUUACGCCGG | -1.91 ± 0.47 | -0.944 ± 0.47
CCGAAGCAAUAUUACGAUUA | -2.53 ± 0.14 | -2.31 ± 0.2
CUCCAGCAAUAUUACGCAUG | -2.12 ± 0.08 | -1.06 ± 0.074
ACUAAGCAAUAUUACGCACG | -1.68 ± 0.1 | -0.457 ± 0.13

Sequence | self-splicing fitness (ln) (30 °C) | self-splicing fitness (ln) (37 °C)
AAACAGCAAUAUUACGUAUC | -3.98 ± 0.17 | -1.97 ± 0.12
CCGCAGCAAUAUUACGCCCU | -3.34 ± 0.47 | 0.196 ± 0.3
GGUUAGCAAUAUUACGUGCU | -2.76 ± 0.46 | -2.35 ± 0.3
CGUUAGCAAUAUUACGGUCG | -1.03 ± 0.11 | 0.369 ± 0.12
CCUCAGCAAUAUUACGCAAC | -2.21 ± 0.3 | -1.83 ± 0.4
CAGAAGCAAUAUUACGAGAG | -2.78 ± 0.17 | -1.98 ± 0.19
CACAAGCAAUAUUACGUUUA | -2.95 ± 0.15 | -1.95 ± 0.13
ACUUAGCAAUAUUACGGUAA | -2.66 ± 0.15 | -1.42 ± 0.14
GCUUAGCAAUAUUACGCUCA | -1.34 ± 0.23 | -0.203 ± 0.22
GGGGAGCAAUAUUACGGCUG | -2.72 ± 0.15 | -1.09 ± 0.22
CGAAAGCAAUAUUACGUGCG | -1.22 ± 0.076 | -0.524 ± 0.097
CCCCAGCAAUAUUACGACGC | -3.17 ± 0.25 | -3.22 ± 0.35
UUACAGCAAUAUUACGUGCU | -3.78 ± 0.2 | -2.26 ± 0.23
AGCUAGCAAUAUUACGUUAU | -4.39 ± 0.32 | -2.19 ± 0.17
AGAUAGCAAUAUUACGUCCG | 0.235 ± 0.1 | -0.122 ± 0.11
CACUAGCAAUAUUACGCACU | -1.54 ± 0.11 | -0.108 ± 0.11
UCGGAGCAAUAUUACGCACG | -3.16 ± 0.34 | -0.819 ± 0.16
ACUUAGCAAUAUUACGACAU | -0.756 ± 0.012 | -0.251 ± 0.032
UUAAAGCAAUAUUACGAGAA | -1.48 ± 0.096 | -0.717 ± 0.12
CUGCAGCAAUAUUACGCUAU | -4.29 ± 0.25 | -3.04 ± 0.25
UGCGAGCAAUAUUACGCCGC | -3.34 ± 0.36 | -1.3 ± 0.43
CCGCAGCAAUAUUACGUCUU | -3.69 ± 0.37 | -3.07 ± 0.24
GCUCAGCAAUAUUACGGGGC | -3.56 ± 0.2 | -1.98 ± 0.2
CGAUAGCAAUAUUACGGGAA | -2.74 ± 0.32 | -2.33 ± 0.25
GUCCAGCAAUAUUACGCAGU | -0.463 ± 0.046 | -0.161 ± 0.058
CGACAGCAAUAUUACGCUCU | -1.69 ± 0.11 | -0.145 ± 0.11

Sequence | self-splicing fitness (ln) (30 °C) | self-splicing fitness (ln) (37 °C)
CGAGAGCAAUAUUACGGUAU | -3.41 ± 0.28 | -2.88 ± 0.29
AUCUAGCAAUAUUACGGUAC | -2.16 ± 0.11 | -2.44 ± 0.14
GACGAGCAAUAUUACGCGCU | -3.04 ± 0.48 | -2.87 ± 0.31
ACAUAGCAAUAUUACGCUUU | -2.82 ± 0.16 | -2.53 ± 0.32
GAUUAGCAAUAUUACGUCAG | -3.51 ± 0.35 | -4.23 ± 0.46
CUUCAGCAAUAUUACGACAU | -3.599 ± 0.023 | -2.28 ± 0.036
GCCUAGCAAUAUUACGACAC | -1.06 ± 0.21 | -0.38 ± 0.27
GAUUAGCAAUAUUACGGCCG | -1.01 ± 0.13 | -1.01 ± 0.19
GUGUAGCAAUAUUACGGACA | -0.685 ± 0.15 | -1.11 ± 0.18
UCUCAGCAAUAUUACGCAAA | -3.55 ± 0.4 | -1.59 ± 0.21
CGGUAGCAAUAUUACGGGAG | -3.22 ± 0.17 | -1.71 ± 0.14
CGGCAGCAAUAUUACGUCAA | -1.53 ± 0.11 | -1.43 ± 0.13
AGUCAGCAAUAUUACGACAG | -0.781 ± 0.12 | -0.399 ± 0.14
AGCCAGCAAUAUUACGAAGA | -1.84 ± 0.26 | -1.46 ± 0.2
CUAGAGCAAUAUUACGAACA | -4.05 ± 0.28 | -2.05 ± 0.2
GAAAAGCAAUAUUACGUACA | -0.498 ± 0.066 | -0.0587 ± 0.082
AGGAAGCAAUAUUACGCAGU | -3.41 ± 0.15 | -0.746 ± 0.095
GUGGAGCAAUAUUACGCCAA | -2.82 ± 0.33 | -0.536 ± 0.33
UCAAAGCAAUAUUACGGCGG | -0.543 ± 0.063 | -0.0651 ± 0.088
CUGGAGCAAUAUUACGCCGU | -2.44 ± 0.4 | -1.06 ± 0.38
UGCAAGCAAUAUUACGUAUA | -2.49 ± 0.18 | -0.379 ± 0.12
GUAGAGCAAUAUUACGCCCA | -1.56 ± 0.2 | -0.471 ± 0.25
GCAAAGCAAUAUUACGGUGU | -4.55 ± 0.29 | -2.71 ± 0.25
CCCCAGCAAUAUUACGGAGC | -3.08 ± 0.15 | -2.83 ± 0.23

From the supplement of paper PMC7877785
